Experimental data from patent US20260116960A1 (SHANGHAI HONGCHENG BIOPHARMACEUTICAL, published 2026).

Legend:
[1] = target: T1, human PD-1 on the cell surface (human, UniProt Q15116 25-288); assay: flow cytometry on activated human T cells (CD3+), PE anti-human IgG Fc
T1 construct: whole, on cells; also called cell surface PD-1
Experimental: Human peripheral blood mononuclear cells (PBMCs, Miaoshun (Shanghai) Biotechnology Co., Ltd., Catalog No.: A19K154025) were rapidly thawed in a 37° C. water bath, resuspended in T cell isolating solution, and counted. After centrifugation at 400 g for 10 minutes, the supernatant was removed and the cells were resuspended to 5×10⁷ cells/mL with T cell separation buffer. T cells were isolated according to the procedure of a T cell isolation kit (Stemcell, Catalog No.: 19051), and the obtained T cells were resuspended in culture medium. The cells were counted using NucleoCounter NC-200 and the T cell density was adjusted to approximately 1×10⁶ cells/mL. Dynabeads containing anti-CD3 and anti-CD28 antibodies (Invitrogen™, Catalog No.: 11132D) and 10 ng/ml hIL-2 (Peprotech, Catalog No.: 200-02) were added and cultured in a 37° C., 5% CO₂ incubator for 3 days. After removing Dynabeads and supernatant, the activated T cells were resuspended in FACS buffer. The cell density was adjusted to about 1×10⁶ cells/mL, and 100 μL of cell solution was added into a 96-well U-bottom plate, 1×10⁵ cells/well. After centrifugation at 500 g for 5 minutes, the supernatant was discarded and 100 μL of the trispecific antibody solution of the present application serially diluted 3-fold with FACS buffer was added in triplicate, with a starting concentration of 200 nM. After mixing, incubated at 4° C. for 60 minutes. After centrifugation and washing three times with FACS buffer, 100 μL/well of PE anti-human IgG Fc (Biolegend, Catalog No.: 366903) was added and incubated at 4° C. for 50 minutes. After washing the plate three times with FACS buffer, 100 μL/well of BV421 anti-human CD3 antibody (OKT3) (Biolegend, Catalog No.: 317344) was added and incubated at 4° C. for 50 minutes. After washing the plate three times with FACS buffer, 70 μL/well of PBS solution was added to resuspend the cells, and the fluorescent signal on CD3 T cells was detected on a flow cytometer (BD Cellesta). The binding activity was fitted using a four-parameter model, and the EC₅₀ value of each antibody binding to T cells was calculated.

[2] = target: T2, human CTLA-4 protein (Acro, Catalog No. CT4-H52H9) (human, UniProt P16410 36-161); assay: ELISA, plate coated with human CTLA-4 protein
T2 construct: Bought protein

[3] = target: T1, human PD-1 on the cell surface; assay: flow cytometry competition, 293T-hPD-1 cells, biotin-human PD-L1
Experimental: 50 μL of antibody solution serially diluted 3-fold in FACS buffer was added in triplicate, with a starting concentration of 200 nM. After mixing, incubated at 4° C. for 60 minutes. After washing three times with FACS buffer, 100 μL/well of 1:800 diluted PE Streptavidin was added and incubated at 4° C. for 50 min. After washing three times with FACS buffer, 150 μL/well of PBS was added to resuspend the cells, and the fluorescence signal was detected on a flow cytometer (BECKMAN COULTER cytoFLEX). The four-parameter model was used to fit the binding activity and the IC₅₀ value of the blocking activity of each antibody was calculated.

[4] = target: T3, human VEGF165-his protein (Acro, Catalog No. VE5-H5248) (human, UniProt P15692-4 27-191); assay: ELISA, plate coated with human VEGF165-his
T3 construct: Bought protein; also called hVEGF165-His; VEGFA; not shown: his tag
Experimental: (§1) ELISA was used to determine the activity of the trispecific antibodies binding to the PD-1 protein: 1 μg/mL human PD-1 protein (Acro, Catalog No.: PD1-H5221) was used to coat a high-adsorption 96-well ELISA plate and incubated at 4° C. overnight. On the next day, the plate was washed three times with PBST solution and blocked with 1% BSA-PBS solution at 37° C. for 1 hour. At the same time, 3-fold gradient dilutions of the antibody were prepared with 1% BSA-PBS solution, with a starting concentration of 10 nM. The antibodies of each gradient concentration were added to the blocked 96-well ELISA plate at 100 µL/well in triplicate and incubated at 37° C. for 1 hour. The plate was then washed three times with 0.05% PBST solution, and 100 μL/well of HRP-labeled secondary antibody (Sigma, Catalog No.: A0170) diluted at 1:5000 was added to the ELISA plate and incubated at 37° C. for 1 hour. The plate was washed three times with 0.05% PBST solution and developed with TMB. The absorbance of the 96-well ELISA plate at 450 nm was detected by an ELISA reader. The OD₄₅₀ value was fitted using a four-parameter model to calculate the EC₅₀ value of each antibody binding to PD-1.
The binding activity of the trispecific antibodies to VEGFA protein was detected by ELISA method as described in Section 2.1. The used human VEGF165-his protein was purchased from Acro, Catalog No.: VE5-H5248.

[5] = target: T4, human CTLA-4 on the cell surface (human, UniProt P16410 36-223); assay: flow cytometry competition, 293T-hPD-1-hCTLA-4 cells (PD-1 co-expressed), biotin-human CD80
T4 construct: whole, on cells; also called CHO-hCTLA-4 cells; CHOK1-hCTLA4 cells
Experimental: PD-1 and CTLA-4 are co-expressed on functionally exhausted T cells in the tumor microenvironment, and the expression level of PD-1 is higher than that of CTLA-4. […] 200 μL of the cells were added to a 96-well U-bottom plate, approximately 1.4×10⁵ cells/well. After centrifugation at 300 g for 5 minutes, the supernatant was discarded. […] After washing three times with FACS buffer, 100 μL/well of 1:800 diluted PE Streptavidin was added and incubated at 4° C. for 50 min. After washing three times with FACS buffer, 150 μL/well of PBS was added to resuspend the cells, and the fluorescence signal was detected on a flow cytometer (BECKMAN COULTER cytoFLEX). The binding activity was fitted using a four-parameter model, and the IC₅₀ value of the blocking activity of each antibody was calculated.

[6] = target: human PD-1 protein (Acro, PD1-H5257) (human, UniProt Q15116 25-167); assay: competitive ELISA, PD-1 coated, biotin-PD-L1 as labelled ligand
Experimental: The next day, the plate was washed three times with PBS solution and blocked with 1% BSA-PBS solution at 37° C. for 1 hour. […] 100 μL of the antibody-protein mixture was added to each well of the blocked 96-well ELISA plate and incubated at 37° C. for 1 hour. After washing four times with PBST, 100 μL of Strep-HRP (BD, Catalog No. 554066) diluted 1:5000 was added to each well of the ELISA plate and incubated at 37° C. for 1 hour. After washing 4 times with PBST, TMB was used for color development. The absorbance at 450 nm and 630 nm was detected by a microplate reader, and OD450-OD630 was calculated. The fluorescence intensity was fitted using a four-parameter model, and the IC₅₀ value of the blocking activity of each antibody was calculated.

[7] = target: T5, human PD-1 protein (Acro, Catalog No. PD1-H5221) (human, UniProt Q15116 25-167); assay: ELISA, plate coated with human PD-1 protein
T5 construct: Bought protein; also called human PD1-his; not shown: his tag
Experimental: as §1

[8] = target: T2, human CTLA-4 protein (Acro, Catalog No. …); assay: BLI (Octet RED96e), antibody on AHC sensor, antigen as analyte 6.25-100 nM, 1:1 model
Experimental: Octet® RED96e (ForteBio) was used to detect the affinity of trispecific antibodies to human PD-1, CTLA-4 and VEGFA. The specific method was as follows: the AHC Sensor was immersed in PBST (PBS containing 0.02% Tween) buffer for 10 minutes to activate the Sensor. The ligand (antibody to be tested) was diluted to 5 μg/mL with PBST buffer. […] The diluted ligand and analyte were added to the corresponding wells at 200 μL/well in triplicate. Program parameter settings: loading: 180 s, association: 180 s, dissociation: 600 s, regeneration: Gly-HCl pH 1.5, 30s, regeneration 3 times. […] Curve fit acceptance criteria: Full R\hat{ }2≥0.95.

[9] = target: T4, human CTLA-4 on the cell surface; assay: flow cytometry, CHO-hCTLA-4 cells, batch FACS#3
[10] = target: T4, human CTLA-4 on the cell surface; assay: flow cytometry, CHO-hCTLA-4 cells, batch FACS#4

T4 sequence (P16410 36-223): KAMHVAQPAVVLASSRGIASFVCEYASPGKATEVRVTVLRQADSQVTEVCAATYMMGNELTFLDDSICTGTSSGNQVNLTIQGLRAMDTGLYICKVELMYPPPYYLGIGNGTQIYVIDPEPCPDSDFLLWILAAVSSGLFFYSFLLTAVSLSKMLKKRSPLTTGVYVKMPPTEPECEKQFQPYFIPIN
T2 sequence (P16410 36-161 limits assumed): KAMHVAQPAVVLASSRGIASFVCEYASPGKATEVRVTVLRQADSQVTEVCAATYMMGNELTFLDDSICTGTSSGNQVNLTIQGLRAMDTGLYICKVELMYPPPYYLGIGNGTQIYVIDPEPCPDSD
T1 sequence (Q15116 25-288): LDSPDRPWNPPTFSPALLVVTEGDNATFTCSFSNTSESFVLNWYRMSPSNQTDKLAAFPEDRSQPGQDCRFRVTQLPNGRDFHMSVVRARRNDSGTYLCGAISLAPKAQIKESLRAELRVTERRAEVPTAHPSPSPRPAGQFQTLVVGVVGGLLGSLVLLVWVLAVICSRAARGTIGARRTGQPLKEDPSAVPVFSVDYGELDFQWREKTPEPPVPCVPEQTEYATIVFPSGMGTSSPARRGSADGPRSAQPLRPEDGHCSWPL
T3 sequence (P15692 other isoform, or with tags, fused parts or gaps limits assumed): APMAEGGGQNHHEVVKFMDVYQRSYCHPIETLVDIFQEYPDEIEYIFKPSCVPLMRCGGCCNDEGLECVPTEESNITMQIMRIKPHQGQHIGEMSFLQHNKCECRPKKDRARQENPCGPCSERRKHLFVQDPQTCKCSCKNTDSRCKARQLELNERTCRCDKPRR
T5 sequence (Q15116 25-167 limits assumed): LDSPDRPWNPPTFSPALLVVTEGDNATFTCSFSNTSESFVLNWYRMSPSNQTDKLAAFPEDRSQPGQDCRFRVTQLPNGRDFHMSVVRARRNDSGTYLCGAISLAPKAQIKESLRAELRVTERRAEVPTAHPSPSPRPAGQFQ
human PD-1 protein (Acro, PD1-H5257), sequence (Q15116 25-167 limits assumed): as above

B1: camrelizumab (antibody, V domains shown)
VH: EVQLVESGGGLVQPGGSLRLSCAASGFTFSSYMMSWVRQAPGKGLEWVATISGGGANTYYPDSVKGRFTISRDNAKNSLYLQMNSLRAEDTAVYYCARQLYYFDYWGQGTTVTVSS
VL: DIQMTQSPSSLSASVGDRVTITCLASQTIGTWLTWYQQKPGKAPKLLIYTATSLADGVPSRFSGSGSGTDFTLTISSLQPEDFATYYCQQVYSIPWTFGGGTKVEIK
B1 showed an EC50 [1] of 0.473 nM.

B2: HC010-F14 (trispecific antibody, human IgG4 S228P)
heavy 1: EVQLVESGGGLVQPGGSLRLSCAASGFTFSSYGMSWVRQAPGKCLEWVSTISGGGRDTYYPDSVKGRFTISRDNSKNTLYLQMNSLRAEDTAVYYCARQNGITWFADWGQGTLVTVSSGGGGSGGGGSGGGGSGGGGSDIQMTQSPSSLSASVGDRVTITCRASESVDNYGISFMNWYQQKPGKAPKLLIYAASNQGSGVPSRFSGSGSGTDFTLTISSLQPEDFATYYCQQSKEVPWTFGCGTKVEIKGGGGSGGGGSGGGGSGGGGSESKYGPPCPPCPAPEFLGGPSVFLFPPKPKDTLMISRTPEVTCVVVDVSQEDPEVQFNWYVDGVEVHNAKTKPREEQFNSTYRVVSVLTVLHQDWLNGKEYKCKVSNKGLPSSIEKTISKAKGQPREPQVYTLPPCQEEMTKNQVSLWCLVKGFYPSDIAVEWESNGQPENNYKTTPPVLDSDGSFFLYSRLTVDKSRWQEGNVFSCSVMHEALHNHYTQKSLSLSLGAGGGGSGGGGSGGGGSGGGGSEVQLVESGGGLVQPGGSLRLSCAASGYTFTNYGMNWVRQAPGKCLEWVGWINTYTGEPTYAADFKRRFTFSLDTSKSTAYLQMNSLRAEDTAVYYCAKYPHYYGSSHWYFDVWGQGTLVTVSSGGGGSGGGGSGGGGSGGGGSDIQMTQSPSSLSASVGDRVTITCSASQDISNYLNWYQQKPGKAPKVLIYFTSSLHSGVPSRFSGSGSGTDFTLTISSLQPEDFATYYCQQYSTVPWTFGCGTKVEIK
heavy 2: EVQLLESGGGLVQPGGSLRLSCAASGSIFSINHMAWYRQAPGKQRELVAGVNSRGTTNYVDSVKGRFTISRDNSKNTLYLQMNSLRAEDTAVYYCRALGGAVAAWGQGTLVTVSSGGGGSGGGGSGGGGSGGGGSESKYGPPCPPCPAPEFLGGPSVFLFPPKPKDTLMISRTPEVTCVVVDVSQEDPEVQFNWYVDGVEVHNAKTKPREEQFNSTYRVVSVLTVLHQDWLNGKEYKCKVSNKGLPSSIEKTISKAKGQPREPQVCTLPPSQEEMTKNQVSLSCAVKGFYPSDIAVEWESNGQPENNYKTTPPVLDSDGSFFLVSRLTVDKSRWQEGNVFSCSVMHEALHNRFTQKSLSLSLGAGGGGSGGGGSGGGGSGGGGSEVQLVESGGGLVQPGGSLRLSCAASGYTFTNYGMNWVRQAPGKCLEWVGWINTYTGEPTYAADFKRRFTFSLDTSKSTAYLQMNSLRAEDTAVYYCAKYPHYYGSSHWYFDVWGQGTLVTVSSGGGGSGGGGSGGGGSGGGGSDIQMTQSPSSLSASVGDRVTITCSASQDISNYLNWYQQKPGKAPKVLIYFTSSLHSGVPSRFSGSGSGTDFTLTISSLQPEDFATYYCQQYSTVPWTFGCGTKVEIK
notes: also called H010-F14
With B2 the EC50 [2] was 0.734 nM, the IC50 [3] was > 200 nM and the EC50 [4] was 0.096 nM. For the same binder, the IC50 [5] was 0.116 nM, the IC50 [6] was 2.41 nM and the EC50 [7] was 0.472 nM.

B3: 202F1 (VHH)
VHH: EVQLLESGGGLVQPGGSLRLSCAASGSIFSINHMAWYRQAPGKQRELVAGVNSRGTTNYVDSVKGRFTISRDNSKNTLYLQMNSLRAEDTAVYYCRALGGAVAAWGQGTLVTVSS
notes: also called anti-CTLA-4 nanobody (202F1)
In the case of B3, the Kd [8] is reported as 0.203 nM.

B4: 202F1-hIgG1 (antibody, V domains shown)
VH: B3 VHH
notes: also called anti-CTLA-4 nanobody 202F1 with hIgG1 constant region
With B4 the EC50 [9] was 1.71 nM, the EC50 [2] was 0.078 nM and the EC50 [10] was 1.05 nM.

B5: sintilimab (antibody, V domains shown)
VH: QVQLVQSGAEVKKPGSSVKVSCKASGGTFSSYAISWVRQAPGQGLEWMGLIIPMFDTAGYAQKFQGRVAITVDESTSTAYMELSSLRSEDTAVYYCARAEHSSTGTFDYWGQGTLVTVSS
VL: DIQMTQSPSSVSASVGDRVTITCRASQGISSWLAWYQQKPGKAPKLLISAASSLQSGVPSRFSGSGSGTDFTLTISSLQPEDFATYYCQQANHLPFTFGGGTKVEIK
B5 gave an EC50 [1] of 0.231 nM.
